The record followed here is article PMC11784139.

Series [1] deals with 6 × His-tagged APR1 (AlmA Positive Regulator) (Acinetobacter venetianus RAG-1). In words: cross-linking; 0.1% glutaraldehyde added to 5 µg purified 6 × His-tagged APR1 in 50 mM Tris-HCl (pH 8.0), 10% glycerol; 0.5–1 h at 30°C; analysed by SDS-PAGE.
Series [2] deals with T1, 6xHis-APR1 (Acinetobacter venetianus RAG-1), ORF:d17a4b85.
T1 sequence: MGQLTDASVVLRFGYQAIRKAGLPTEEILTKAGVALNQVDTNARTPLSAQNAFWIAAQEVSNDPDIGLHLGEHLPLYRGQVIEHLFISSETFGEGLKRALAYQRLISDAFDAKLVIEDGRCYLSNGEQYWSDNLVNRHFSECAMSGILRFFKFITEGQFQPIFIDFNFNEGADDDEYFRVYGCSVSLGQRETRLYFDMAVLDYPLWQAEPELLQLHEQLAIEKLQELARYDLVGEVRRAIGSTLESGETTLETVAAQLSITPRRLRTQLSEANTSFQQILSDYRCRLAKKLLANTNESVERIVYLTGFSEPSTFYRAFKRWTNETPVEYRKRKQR
In words: EMSA. Particulars: EMSA: 5 mM Tris-HCl pH 7.5, 0.1 mM EDTA, 5 mM MgCl2, 10 mM KCl, 0.2 mM DTT, 30 C, 30 min, native PAGE in 0.5x TBE; MST: 50 mM PBS pH 7.2-7.4, temperature not …. (In EMSA bound probe runs differently from free probe, usually more slowly.)

In series [3] the test system is 6xHis-APR1 (Acinetobacter venetianus RAG-1). Kind of series: MST. As to conditions: EMSA: 5 mM Tris-HCl pH 7.5, 0.1 mM EDTA, 5 mM MgCl2, 10 mM KCl, 0.2 mM DTT, 30 C, 30 min, native PAGE in 0.5x TBE; MST: 50 mM PBS pH 7.2-7.4, temperature not ….

Consider “6 × His-tagged APR1 (AlmA Positive Regulator) (natural protein)”, for which the stoichiometry N (usually the number of molecules, sites or subunits per partner or assembly) in series [1] was determined as 2.

For “AGCCTACCTGATGATCAAATTGGAAAGGCGCAAATTATAGTCAATTTATTTGAAATTTACAAGACGCTCTCTTAGCAAAGCTTGTACAGATGAATTGGAAAAAACTGTCAGACAATCCTCATTTTTTTTTAACAAAAGAAGCAGAATAGTGTTGTCAGTTTGGTCAATCAACGTTAATCTAAAATTATTGTTTATTGTCACAATAACGTATCTACAGGGAAGGGCACTGC (double strand) [apR1 promoter]”, the binding result in series [2] is on record as “binds”.

Regarding almA promoter, the Kd (in general, the free concentration of one partner at which half of the binding sites on the other are occupied at equilibrium, for simple one-to-one binding) in series [3] is 0.0972 µM.
